{"source": "patent US5834244", "key": {"[1]": {"target": "tissue factor-Factor VIIa complex (human Factor VIIa with recombinant human tissue factor 1-243) (human) (UniProt P08709)", "experiment": "apparent Ki* for TF-FVIIa; method not told at this place"}, "[2]": {"target": "tissue factor-Factor VIIa complex (human Factor VIIa with recombinant human tissue factor 1-243) (human) (UniProt P08709)", "experiment": "chromogenic enzyme inhibition assay, FVIIa 10 nM, TF1-243 50 nM; apparent Ki* by fit to the tight-binding equation"}, "[3]": {"target": "human plasma kallikrein (human) (UniProt P03952)"}, "human Factor XIa (human)": {"target": "human Factor XIa (human) (UniProt P03951)"}, "[4]": {"target": "tissue factor-Factor VIIa complex (human Factor VIIa with recombinant human tissue factor 1-243) (human) (UniProt P08709)", "experiment": "chromogenic enzyme inhibition assay under equilibrium conditions; apparent Ki*"}, "[5]": {"target": "rabbit TF-FVIIa in the PT assay (rabbit thromboplastin with rabbit plasma) (rabbit)"}}, "data": [{"substance": "first Kunitz domain of TFPI", "values": [{"measurement": "Ki", "setting": "[1]", "result": 0.6, "unit": "µM"}]}, {"substance": "APPI, Alzheimer's amyloid β-protein precursor inhibitor", "values": [{"measurement": "Ki", "setting": "[2]", "result": 0.3, "unit": "µM"}, {"measurement": "fold prolongation of clotting time, APTT assay in normal human plasma (fold prolongation at 40 µM inhibitor)", "setting": "[3]", "result": 3.6}, {"measurement": "fold prolongation of clotting time, APTT assay in normal human plasma (fold prolongation at 40 µM inhibitor)", "setting": "human Factor XIa (human)", "result": 3.6}, {"measurement": "Ki", "setting": "[4]", "result": 0.301, "unit": "µM"}, {"measurement": "fold increase of clotting time over baseline, PT assay in rabbit plasma (fold increase over baseline at 40 µM)", "setting": "[5]", "result": 1.4}]}]}
